We go through nine substances from US20160039884A1.

Targets include integrin receptors; α5 integrin subunit (UniProt P08648); α5β1 integrin (UniProt P08648); αv integrin (UniProt P06756).
Experiment in all cases: cell-based or functional assay

Sequence of UniProt P06756 (P06756 31-1048 limits assumed): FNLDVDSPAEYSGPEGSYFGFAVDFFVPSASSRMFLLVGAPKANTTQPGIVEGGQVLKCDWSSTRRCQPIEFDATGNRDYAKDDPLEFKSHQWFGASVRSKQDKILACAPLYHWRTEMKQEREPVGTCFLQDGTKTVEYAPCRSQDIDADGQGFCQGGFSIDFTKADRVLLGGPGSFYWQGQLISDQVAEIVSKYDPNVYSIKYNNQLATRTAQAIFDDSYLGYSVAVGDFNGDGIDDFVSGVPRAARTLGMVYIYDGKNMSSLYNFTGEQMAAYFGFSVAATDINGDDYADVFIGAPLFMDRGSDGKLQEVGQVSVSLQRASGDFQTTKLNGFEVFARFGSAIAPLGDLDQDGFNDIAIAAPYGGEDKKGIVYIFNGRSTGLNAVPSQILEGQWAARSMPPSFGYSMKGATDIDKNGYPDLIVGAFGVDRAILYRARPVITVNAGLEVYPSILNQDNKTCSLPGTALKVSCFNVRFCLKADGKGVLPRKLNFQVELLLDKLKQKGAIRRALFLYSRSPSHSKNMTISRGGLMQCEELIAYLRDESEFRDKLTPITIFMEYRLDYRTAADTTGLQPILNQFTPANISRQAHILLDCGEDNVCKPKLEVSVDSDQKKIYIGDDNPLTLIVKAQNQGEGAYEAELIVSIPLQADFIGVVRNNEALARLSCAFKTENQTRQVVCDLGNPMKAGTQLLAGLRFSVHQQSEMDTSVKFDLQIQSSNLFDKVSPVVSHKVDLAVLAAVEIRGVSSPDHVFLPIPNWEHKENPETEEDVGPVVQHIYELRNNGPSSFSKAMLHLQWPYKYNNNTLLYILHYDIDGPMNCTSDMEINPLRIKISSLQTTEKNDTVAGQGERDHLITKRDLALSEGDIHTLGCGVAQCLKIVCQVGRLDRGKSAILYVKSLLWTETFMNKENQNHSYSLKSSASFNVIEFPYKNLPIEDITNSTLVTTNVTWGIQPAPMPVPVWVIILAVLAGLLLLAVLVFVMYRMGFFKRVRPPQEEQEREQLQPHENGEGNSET

In the case of “hMPV F protein (wild type, strain NL/1/00), expressed from pCAGGS-F”, the Fusion (content mixing fusion assay, percent of wild type F) with integrin receptors is 100%. Further, the reduction of fusion activity (syncytium count) after siRNA knockdown of α5 with α5 integrin subunit came out at 80%. In the assay with α5β1 integrin, this substance yielded an inhibition of cell-cell fusion (content-mixing fusion assay) by anti-α5β1 antibody of 80%. In the assay with αv integrin, the inhibition of cell-cell fusion (content-mixing fusion assay) by anti-αv antibody is 80% and the reduction of fusion activity (syncytium count) after siRNA knockdown of αv came out at 60%. In turn, hMPV F protein mutant D331A had a Fusion (content mixing fusion assay, percent of wild type F) with integrin receptors of 58%. The substance hMPV F protein mutant D331E gave a Fusion (content mixing fusion assay, percent of wild type F) in the assay with integrin receptors of 118%. For the substance hMPV F protein mutant D331R, the Fusion (content mixing fusion assay, percent of wild type F) with integrin receptors turned out to be 107%. In the case of hMPV F protein mutant G330A, the Fusion (content mixing fusion assay, percent of wild type F) in the assay with integrin receptors was determined as 20%. In the assay with integrin receptors, hMPV F protein mutant G330S yielded a Fusion (content mixing fusion assay, percent of wild type F) of 9%. In the case of hMPV F protein mutant R329A, the Fusion (content mixing fusion assay, percent of wild type F) in the assay with integrin receptors worked out at 13%. Take hMPV F protein mutant R329D: the Fusion (content mixing fusion assay, percent of wild type F) with integrin receptors worked out at 13%. On the same count and under the same terms, next, hMPV F protein mutant R329K: 72%.
